Laboratory results: article PMC5797133

Experiments:
[1] = molecular target: short-chain dehydrogenase/reductase from Serratia marcescens BCRC 10948 (Serratia marcescens BCRC 10948); assay: crystal structure; apo form, 1.47 Å, space group P4(1)2(1)2; sitting drop, 20 °C, 50 mM HEPES pH 7.0, 40% tacsimate pH 7.0, 2 mM spermine, 2 mM hexamine cobalt (III) chloride; homodimer AB in the asymmetric unit, tetramer by two-fold crystallographic symmetry
[2] = molecular target: short-chain dehydrogenase/reductase from Serratia marcescens BCRC 10948 (Serratia marcescens BCRC 10948); assay: SEC; size-exclusion chromatography of the purified SmSDR; single peak; conditions not given

short-chain dehydrogenase/reductase from Serratia marcescens BCRC 10948 (enzyme)
stoichiometry N [1]: 4 | stoichiometry N [2]: 4
